B1: Histone-lysine N-methyltransferase SETD7 (Homo sapiens), Q8WTS6 (parent)
chain: MDSDDEMVEEAVEGHLDDDGLPHGFCTVTYSSTDRFEGNFVHGEKNGRGKFFFFDGSTLEGYYVDDALQGQGVYTYEDGGVLQGTYVDGELNGPAQEYDTDGRLIFKGQYKDNIRHGVCWIYYPDGGSLVGEVNEDGEMTGEKIAYVYPDERTALYGKFIDGEMIEGKLATLMSTEEGRPHFELMPGNSVYHFDKSTSSCISTNALLPDPYESERVYVAESLISSAGEGLFSKVAVGPNTVMSFYNGVRITHQEVDSRDWALNGNTLSLDEETVIDVPEPYNHVSKYCASLGHKANHSFTPNCIYDMFVHPRFGPIKCIRTLRAVEADEELTVAYGYDHSPPGKSGPEAPEWYQVELKAFQATQQK

Variants of: B1
Details: with tf65_human RELA

effect of a mutation on the interaction	Variant
disrupting interaction	H297A

Source: IntAct's records for PubMed 19262565
